For series [1], the system named is His-PhbF (Herbaspirillum seropedicae SmR1). Description: EMSA. As to conditions: apparent; 100 ng calf thymus DNA; tetramer concentration; EMSA: 10 mM Tris-HCl pH 7.5, 80 mM NaCl, 1 mM EDTA, 10 mM beta-mercaptoethanol, 5% glycerol, 20 nM DNA, 100 ng calf thymus DNA in 10 uL, 30 C 5 min; footprint: ….
Series [2] concerns the molecule itself. Description: SEC; gel filtration chromatography of purified His-PhbF; apparent molecular weight 104.3 kDa; conditions not told in the main text (Additional file 1, Figure S2). For orientation: Size exclusion chromatography separates by hydrodynamic size, large species first.

As to phaP1 promoter, the Kd in series [1] is 150 nM.
Still for that read-out and setting: the figure for phbF promoter (EMSA) is 450 nM.

B1: His-PhbF (H. seropedicae SmR1 PhbF protein fused to an N-terminal six-histidine tag) (natural protein, Herbaspirillum seropedicae SmR1, UniProt D8J0C9 1-188, looked up)
chain: MTTAKNSADRLIKKYPNRRLYDTQTSSYITLTDVKQLVLDNEEFTVVDAKSGDDLTRSILLQIILEEESHGVPMFSSGALSQIIRYYGHAMQGMMGNYLEKNIQTFIDIQNKLAENSKGFYEGKPFSPEMWTQFMNVQGPMMQGMMSNYIEQSKNLFIQMQEQMQSQTKNMFGTFPFGNPGAGPDQKK
notes: the phbF gene was amplified from the genome and cloned into pET-28a (pKADO3); The pET-28a vector residues between the His tag and the protein are not described; also called His-tag PhbF protein; source: E. coli BL21(DE3) carrying pKADO3, purified (Hi-Trap Chelating Ni2+ column); not shown: His6, N-terminal, kept
In the case of B1, the “stoichiometry N” value in series [2] was found to be 4.

As a reminder, the stoichiometry N is a count of units in the complex or per binding partner.

(Values after publication PMC3206438, “Identification and characterization of PhbF: A DNA binding protein with regulatory role in the PHB metabolism of Herbaspirillum seropedicae SmR1” (BMC Microbiology, 2011).)
